These results are taken from patent US20190030114.

In data set [1] the target is T1, striatal-enriched protein tyrosine phosphatase (STEP), P54830.
T1 chain: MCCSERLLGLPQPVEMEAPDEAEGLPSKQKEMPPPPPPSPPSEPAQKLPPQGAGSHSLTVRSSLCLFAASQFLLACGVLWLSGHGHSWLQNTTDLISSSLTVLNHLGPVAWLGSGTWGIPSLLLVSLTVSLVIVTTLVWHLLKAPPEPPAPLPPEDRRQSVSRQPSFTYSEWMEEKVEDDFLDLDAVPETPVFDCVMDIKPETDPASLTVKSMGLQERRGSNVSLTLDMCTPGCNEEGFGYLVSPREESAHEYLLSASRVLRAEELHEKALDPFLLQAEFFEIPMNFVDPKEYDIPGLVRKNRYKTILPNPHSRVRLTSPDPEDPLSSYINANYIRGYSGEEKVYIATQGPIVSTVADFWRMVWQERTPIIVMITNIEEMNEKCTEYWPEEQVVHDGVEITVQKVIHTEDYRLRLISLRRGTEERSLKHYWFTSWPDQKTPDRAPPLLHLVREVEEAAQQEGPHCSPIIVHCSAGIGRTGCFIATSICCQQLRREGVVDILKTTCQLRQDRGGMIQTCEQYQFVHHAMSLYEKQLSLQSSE

B1: calpain-2 (m-calpain), Mus musculus (protein)
chain: SHERAIKYLNQDYETLRNECLEAGALFQDPSFPALPSSLGYKELGPYSSKTRGIEWKRPTEICADPQFIIGGATRTDICQGALGDCWLLAAIASLTLNEEILARVVPPDQSFQENYAGIFHFQFWQYGEWVEVVVDDRLPTKDGELLFVHSAEGSEFWSALLEKAYAKINGCYETLSGGATTEGFEDFTGGIAEWYELRKPPPNLFKIIQKALEKGSLLGCSIDITSAADSEAVTYQKLVKGHAYSVTGAEEVESSGSLQKLIRIRNPWGQVEWTGKWNDNCPSWNTVDPEVRANLTERQEDGEFWMSFSDFLRHYSRLEICNLTPDTLTCDSYKKWKLTKMDGNWRRGSTAGGCRNYPNTFWMNPQYLIKLEEEDEDEEDGGRGCTFLVGLIQKHRRRQRKMGEDMHTIGFGIYEVPEELTGQTNIHLGKNFFLTTRARERSDTFINLREVLNRFKLPPGEYVLVPSTFEPHKDGDFCIRVFSEKKADYQAVDDEIEANIEEIDANEEDIDDGFRRLFVQLAGEDAEISAFELQTILRRVLAKRQDIKSDGFSIETCKIMVDMLDEDGSGKLGLKEFYILWTKIQKYQKIYREIDVDRSGTMNSYEMRKALEEAGFKLPCQLHQVIVARFADDELIIDFDNFVRCLVRLETLFKIFKQLDPENTGTIQLNLASWLSFSVL
Take B1: the “SBDP levels, immunoblot of mouse retinal extracts 6 h after intravitreal NMDA injection” value in the data set with spectrin, P16546 was “Levels of SBDP were significantly increased; injection of C2l significantly suppressed NMDA-induced changes in SBDP”. The “STEP33 (cleavage product of STEP), Western blot of retina 3 h after IOP elevation” value in data set [1] was “STEP33 was present in WT and calpain-1 KO mice but not in C2l-injected WT mice following increased IOP”.

B2: calpain-1 (µ-calpain), Mus musculus (protein)
chain: MTEELITPVYCTGVSAQVQKKRDKELGLGRHENAIKYLGQDYETLRARCLQSGVLFQDEAFPPVSHSLGFKELGPHSSKTYGIKWKRPTELMSNPQFIVDGATRTDICQGALGDCWLLAAIASLTLNETILHRVVPYGQSFQDGYAGIFHFQLWQFGEWVDVVIDDLLPTKDGKLVFVHSAQGNEFWSALLEKAYAKVNGSYEALSGGCTSEAFEDFTGGVTEWYDLQKAPSDLYQIILKALERGSLLGCSINISDIRDLEAITFKNLVRGHAYSVTGAKQVTYQGQRVNLIRMRNPWGEVEWKGPWSDSSYEWNKVDPYEREQLRVKMEDGEFWMSFRDFIREFTKLEICNLTPDALKSRTLRNWNTTFYEGTWRRGSTAGGCRNYPATFWVNPQFKIRLEEVDDADDYDNRESGCSFLLALMQKHRRRERRFGRDMETIGFAVYQVPRELAGQPVHLKRDFFLANASRAQSEHFINLREVSNRIRPPPGEYIVVPSTFEPNKEGDFLLRFFSEKKAGTQELDDQIQANLPDEKVLSEEEIDDNFKTLFSKLAGDDMEISVKELQTILNRIISKHKDLRTNGFSLESCRSMVNLMDRDGNGKLGLVEFNILWNRIRNYLTIFRKFDLDKSGSMSAYEMRMAIEAAGFKLNKKLHELIITRYSEPDLAVDFDNFVCCLVRLETMFRFFKLLDTDLNGVVTFDLFKWLQLTMFA
For B2, in data set [1], the “STEP33 (cleavage product of STEP), Western blot of retina 3 h after IOP elevation” value was “STEP33 was present in WT and calpain-1 KO mice (no part of calpain-1)”.
